Publication PMC3351150

Target: controller protein C.Esp1396I
Assay: crystal structure

- stoichiometry N: 2
Substance: controller protein C.Esp1396I (natural protein)
